Experimental data taken from the supplement of paper PMC10126150.
± gives the standard deviation of the averaged measurements.

The sequences below were run on ATP (assay: switch fluorescence ratio, 500 uM ATP over buffer (Cy3 cluster intensity, sum of 5 cycles each) (fold (ratio)); higher = stronger signal-on switching upon ATP binding; sequences stand for … in TCGTCGGCAGCGTCAGATGTGTATAAGAGACAGTTTTTTTTTTTTTTTTTTTTTTTTT…TC). Settings: aptamer strand: ATP DNA aptamer (quencher-CACCTGGGGGAGTATTGCGGAGGAAGG + anchor), 100 nM annealed; ATP concentration: 500 uM.
How it was run: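 Clusters carrying Cy3-labelled switching strands on a modified Illumina MiSeq flow-cell were annealed to 100 nM quencher-labelled ATP aptamer and imaged in selection buffer. They were imaged again after 15 min with 500 uM ATP at 22 °C, over five buffer/ATP cycles with NaOH stripping and re-annealing in between. For each cluster, the fluorescence ratio is the summed Cy3 intensity of the target cycles divided by that of the buffer cycles, averaged per switch-domain sequence. Clusters outside 100-1000 RFU were left out.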
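Further: ATP exposure 15 min at 22 °C before imaging.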

Sequence | switch fluorescence ratio
CGGGTAAAGG | 0.9441 ± 0.0076
CGGTTTAAGT | 0.993 ± 0.028
CAACGTATTT | 1.113 ± 0.002
TTGAGATCGG | 1.01 ± 0.05
TATGGGTAAT | 0.975 ± 0.016
TGGCATTTTT | 0.991 ± 0.025
AATGGGGACG | 0.985 ± 0.021
TATTAGGGGG | 0.984 ± 0.048
GGGGCTAATG | 1.01 ± 0.023
TCAGGTAGTG | 0.9875 ± 0.0078
AGGGTGGAAA | 1.02 ± 0.019
TCAGATGTCT | 1.03 ± 0.055
ATCTATTAGC | 0.9896 ± 0.009
AGGCTCGGGG | 1.04 ± 0.026
TACGTGGGTG | 1.05 ± 0.02
TCATTGGGAA | 1.01 ± 0.021
TGGGGGACGT | 0.999 ± 0.045
GGGGATCAGG | 1.03 ± 0.075
GATCATGGGA | 1.03 ± 0.093
GGCGGGTGAG | 1.03 ± 0.025
AGATTTTAGG | 0.988 ± 0.012
AAGTGTGACT | 1 ± 0.019
GTTTATCGCT | 1.023 ± 0.0077
GAAAATTGGG | 0.983 ± 0.015
TCCTTAATTT | 1.02 ± 0.055
GAACTCTGGG | 0.9899 ± 0.006

Sequence | switch fluorescence ratio
GGTGTTAGGC | 1.01 ± 0.032
TCGTTCAGGA | 0.995 ± 0.013
GATGGTAATT | 1 ± 0.025
GAACTTCGGT | 0.946 ± 0.013
GAAAGTTAAG | 1.015 ± 0.0049
TAATGCGGTT | 1.016 ± 0.004
TAATAACATG | 0.9691 ± 0.0038
GCTGCGGGGT | 0.993 ± 0.045
AACGGGCGGG | 1.15 ± 0.014
ACGAAAAAAG | 1.02 ± 0.012
GGTTTTGATC | 0.972 ± 0.047
TTAATGTGAT | 1 ± 0.012
ACGCTGTCGG | 1.006 ± 0.0068
GTTTACTATA | 1.06 ± 0.049
TCTCGTATAT | 1.05 ± 0.045
TCCGGGTTTT | 0.963 ± 0.019
CTCTTGGGCT | 0.971 ± 0.089
TTAATATTAT | 0.978 ± 0.013
TGAACGTTGG | 0.997 ± 0.029
AAAATTTTGC | 1.12 ± 0.2
AGGATTTCGT | 1.008 ± 0.0068
TTTTGTTACC | 1.02 ± 0.018
TTGAGCTAGG | 1.01 ± 0.023
CGATTTTCAT | 0.988 ± 0.013
TTGGTATATA | 0.9879 ± 0.0069
TCATAACTGC | 1.02 ± 0.029

Sequence | switch fluorescence ratio
CATGACGTGT | 1.01 ± 0.012
GCGTGCATCC | 1.03 ± 0.053
ATCACAGCTA | 1.04 ± 0.017
AGACGTTTTT | 1 ± 0.033
CTCGTTCTTT | 1 ± 0.031
ACGAGCGCGT | 1.02 ± 0.027
TCGGGTTGTA | 1 ± 0.025
CCTCTATATT | 1.181 ± 0.011
GTATGGAGAG | 1.0111 ± 6.5e-05
TTATTAGAGC | 0.958 ± 0.085
TATTGGGGTT | 0.996 ± 0.04
CTCATAACAT | 1.01 ± 0.032
CGGGGAGTAA | 1.01 ± 0.012
GGCGGTATGT | 0.975 ± 0.028
CGATATGTTC | 1.01 ± 0.018
GGATGGGGTT | 1 ± 0.018
TGAAGGAGGT | 1 ± 0.015
AATGGGGACT | 1 ± 0.012
TTCTCTTGTT | 1 ± 0.037
CGTCAGCGAA | 1.18 ± 0.039
AGGGGTGCCA | 0.9529 ± 0.0048
TAGAACCGGG | 1.09 ± 0.024
TTACCAGTTG | 1.04 ± 0.031
TATTGACTTT | 1.28 ± 0.35
GGGTGTTGAC | 0.993 ± 0.018
AAGGTATTTT | 1.01 ± 0.037

Sequence | switch fluorescence ratio
ATAAATGAGG | 1.01 ± 0.014
ATTAGGGGTT | 1 ± 0.037
AACGGTATTC | 1.07 ± 0.043
TGTGGGTCGT | 1.01 ± 0.026
GAGGTCAGGT | 1.01 ± 0.021
GCGGGTAGCG | 0.983 ± 0.022
GAAACGGCGG | 1.04 ± 0.055
AGAAAAGTAC | 1.08 ± 0.076
TATGGGTGGC | 1.02 ± 0.11
TAAGGTGGCT | 1.01 ± 0.043
ATATACGTTG | 1.03 ± 0.011
TGGGGTTATC | 0.9931 ± 0.0079
CGGTTCTGTA | 1.01 ± 0.027
ATTGTCGGCT | 1.05 ± 0.18
GAGTTGTGCG | 0.9969 ± 0.001
CAAGAATGCG | 1 ± 0.034
TGGGTAAACA | 1.02 ± 0.012
TAGGGCGCCG | 1.0192 ± 0.00067
GCTTATAATG | 0.997 ± 0.031
TCCGGACCTC | 1.5 ± 0.34
TTTAACGTTT | 0.979 ± 0.0061
GGGTTATCCT | 1.07 ± 0.047
GGGTAGATGG | 0.9704 ± 0.0062
CGAAATGGGT | 1.03 ± 0.025
TTGTGAATGT | 0.975 ± 0.016
TTTTCTAGGG | 1.01 ± 0.017

Sequence | switch fluorescence ratio
TTGTTGTTAC | 0.9998 ± 0.0074
ATTTGTGGGG | 1.01 ± 0.065
CGGCTTGATA | 1.01 ± 0.033
TATGGTGTTT | 1.02 ± 0.036
GGCTAACAAG | 1.01 ± 0.02
GCTATTGATC | 1.02 ± 0.021
CTGTATGATC | 1 ± 0.024
TTAATTGGGA | 0.9897 ± 0.0028
CCATAAACTA | 1.01 ± 0.066
GACATGGCGG | 1.01 ± 0.024
TAAGCTGTGG | 1.02 ± 0.028
CGGGTTTGAC | 0.984 ± 0.047
ACTGTTTTAT | 1.01 ± 0.038
GTCGTAGGGG | 1.03 ± 0.018
ATGAGGGCTA | 0.983 ± 0.044
GGGCCGGGGG | 1 ± 0.022
ATGAGGGGAA | 1.04 ± 0.034
ATTGGGCAAT | 1.054 ± 0.0023
GATAGGGGCG | 0.998 ± 0.026
CGTCTAGACT | 1.018 ± 0.0036
GGTCGGTAGA | 0.998 ± 0.015
CCGGGGGGCG | 0.976 ± 0.053
CAAGGTGGGG | 1.03 ± 0.0038
GGTATGTGTT | 0.987 ± 0.04
ATGTAACTGT | 0.976 ± 0.033
TTATTCGGTA | 0.9978 ± 0.0065

Sequence | switch fluorescence ratio
ATGTAGGGGT | 1.04 ± 0.093
TTTTACCAG | 1.02 ± 0.051
GTTAGGTTTG | 0.997 ± 0.029
ACGAGTGAAA | 1.02 ± 0.045
GTGGCTATGG | 0.96188 ± 0.00027
CTTTCGGGCT | 1.01 ± 0.026
GATCGAACGT | 1.017 ± 0.0085
CGAAGGGATG | 0.982 ± 0.031
GAGGTTTTTG | 0.994 ± 0.032
AGGCTTGTTT | 0.996 ± 0.015
CGTCATGATG | 1 ± 0.029
ACGGCGGGGG | 1.15 ± 0.25
AAGAGAAGCC | 1.02 ± 0.078
GCATGGCTGG | 1.017 ± 0.00012
AGTACCATTG | 0.997 ± 0.015
AGTGTGGGCA | 0.965 ± 0.026
GGGCGGGGGG | 1.01 ± 0.03
GCACGCAACT | 1.32 ± 0.013
TGTTGTTAAA | 0.982 ± 0.012
TATAAGGGCG | 0.976 ± 0.058
ATTAACTGGG | 1.01 ± 0.023
GCCTTGAGGA | 0.997 ± 0.018
TGAGCGGAGG | 1.01 ± 0.002
